T1: NY-ESO-1 peptide on HLA-A*02:01 (human)
T1 peptide: SLLMWITQC

T2: PRAME peptide on HLA-A*02:01 (human)
T2 peptide: SLLQHLIGL

T3: PRAME peptide on HLA-A*02:02 (human)
T3 peptide: SLLQHLIGL

T4: PRAME peptide on HLA-A*02:04 (human)
T4 peptide: SLLQHLIGL

T5: PRAME peptide on HLA-A*02:09 (human)
T5 peptide: SLLQHLIGL


Tests used:
[1] = target: T1, NY-ESO-1 peptide on HLA-A*02:01; assay: cytokine release
[2] = target: T2, PRAME peptide on HLA-A*02:01; assay: killing
[3] = target: T3, PRAME peptide on HLA-A*02:02; assay: cytokine release
[4] = target: T4, PRAME peptide on HLA-A*02:04; assay: cytokine release
[5] = target: T5, PRAME peptide on HLA-A*02:09; assay: cytokine release

Row | binding result [1] | binding result [3] | binding result [4] | binding result [5] | Binder | binding result [2]
1 | recognises | – | – | – | NY-ESO-1/LAGE-1 specific TCR of SEQ ID NOs 41 and 42 (TCR, V domains shown) Valpha: QKEVEQNSGPLSVPEGAIASLNCTYSDRGSQSFFWYRQYSGKSPELIMFIYSNGDKEDGRFTAQLNKASQYVSLLIRDSQPSDSATYLCAADDKIIFGKGTRLHILP Vbeta: DAGVIQSPRHEVTEMGQEVTLRCKPISGHDYLFWYRQTMMRGLELLIYFNNNVPIDDSGMPEDRFSAKMPNASFSTLKIQPSEPRDSAVYFCASSRGGSGYTFGSGTRLTVV | –
2 | – | recognises | recognises | recognises | T23.8-2.1-027-004 (TCR, V domains shown) Valpha: GQQLNQSPQSMFIQEGEDVSMNCTSSSIFNTWLWYKQDPGEGPVLLIALYKAGELTSNGRLTAQFGITRKDSFLNISASIPSDVGIYFCAGLADYGGSQGNLIFGKGTKLSVKP Vbeta: DSGVTQTPKHLITATGQRVTLRCSPRSGDLSVYWYQQSLDQGLQFLIQYYNGEERAKGNILERFSAQQFPDLHSELNLSSLELGDSALYFCASSVWASGGYEQYFGPGTRLTVT | recognises

Source: US20240374729A1 (published 2024)
